Data published in patent publication JP2012157315A.

Target: EGFR (ミズーリ州セントルイス、シグマ社) (UniProt P00533)
Assay: SPR (BIACORE X), fusion protein amine-coupled to the chip, 10-100 nM EGFR in flow

B1: celB+Lama glama由来の抗EGFRのVHH抗体+Hisタグ融合タンパク質 (VHH, not shown: small tags and cut ends)
chain: QQVGTTADAHPRLTTYKCTSQNGCTRQNTSLVLDAATHFIHKKGTQTSCTNSNGLDTAICPDKQTCADNCVVDGITDYASYGVQTKNDTLTLQQYLQTGNATKSLSPRVYLLAEDGENYSMLKLLNQEFTFDVDASTLVCGMNGALYLSEMEASGGKSSLNQAGAKYGTGYCDAQCYTTPWINGEGNTESVGSCCQEMDIWEANARATGLTPHPCNTTGLYECSGSGCGDSGVCDKAGCGFNPYGLGAKDYYGYGLKVNTNETFTVVTQFLTNDNTTSGQLSEIRRLYIQNGQVIQNAAVTSGGKTVDSITKDFCSGEGSAFNRLGGLEEMGHALGRGMVLALSIWNDAGSFMQWLDGGSAGPCNATEGNPALIEKLYPDTHVKFSKIRWGDIGSTYRHQVQLVESGGGLVQAGDSLRLSCVDSGRDFSDYVMGWFRQAPGKEREFVAAISRNGITTRYADSVKGRFTISRDNDKNTVYLQMNSLKPEDTAVYYCATNSAGTYVSPRSRDYDGWGQGTQVTVSS
Kd: 14.7 nM
